Reference: patent US7847064B2, “Methods and compositions for regulating gene expression in plant cells” (Donald Danforth Plant Science Center, priority 2004, dated 2010)

B1: RF2a-ΔPΔA: RF2a mutant, proline-rich and acidic domains removed, SEQ ID NO:70 (protein)
chain: MSSSAAAHGARPKHQHSLSMDESMSIKAEELVGASPGTEGMSSAEAKKAVSAVKLAELALVDPKRAKRIWANRQSAARSKERKMRYIAELERKVQTLQTEATTLSAQLALLQRDTSGLTTENSELKLRLQTMEQQVHLQDALNDTLKSEVQRLKVATGQMANGGGMMMNFGGMPHQFGGNQQMFQNNQAMQSMLAAHQLQQLQLHPQAQQQQVLHPQHQQQQPLHPLQAQQLQQAARDLKMKSPMGGQSQWGDGKSGSSGN
modifications: This sequence was artificially derived and/or created by the inventors.
B2: RF2a-ΔPΔQ: RF2a mutant, proline- and glutamine-rich domains removed, SEQ ID NO:71 (protein)
chain: MGHRRAHSEILSLPEDLDLCAAGGGDGPSLSDENDEELFSMFLDVEKLNSTCGASSEAEAESSSAAAHGARPKHQHSLSMDESMSIKAEELVGASPGTEGMSSAEAKKAVSAVKLAELALVDPKRAKRIWANRQSAARSKERKMRYIAELERKVQTLQTEATTLSAQLALLQRDTSGLTTENSELKLRLQTMEQQVHLQDALNDTLKSEVQRLKVATGQMANGGGMMMNFGGMPHQ
modifications: This sequence was artificially derived and/or created by the inventors.
B3: RF2a-3Δ: RF2a mutant, glutamine-rich, proline-rich and acidic domains removed, SEQ ID NO:72 (protein)
chain: MSSSAAAHGARPKHQHSLSMDESMSIKAEELVGASPGTEGMSSAEAKKAVSAVKLAELALVDPKRAKRIWANRQSAARSKERKMRYIAELERKVQTLQTEATTLSAQLALLQRDTSGLTTENSELKLRLQTMEQQVHLQDALNDTLKSEVQRLKVATGQMANGGGMMMNFGGMPHQ
modifications: This sequence was artificially derived and/or created by the inventors.

Assays:
[1] = test system: Nicotiana tabacum cv. Xanthi NN; assay: Phenotype of transgenic tobacco plants overexpressing RF2a or RF2a mutants; assay type: in vivo; settings: for phenotype of transgenic tobacco plants: CaMV 35S promoter driven, T1 generation, greenhouse; for cross-sections of the stem of transgenic plants: two-month old tobacco, toluidine blue O
Excerpt: (Yin et al., 1997; Petruccelli et al., 2001). […] Fifteen or more independent transgenic tobacco lines were developed with the constructs described below through Agrobacterium-mediated transformation.
Plasmids for Agrobacterium-mediated transformation—The fusion genes described above relating to the plant expression constructs comprising RF2a deletion mutants were released from pMON999-derived plasmids using NotI (blunted) and cloned into the binary vector pGA-E::GUS (Petruccelli et al., 2001) using the blunt HindIII site (downstream of a CaMV 35S promoter sequence). The final plasmids were named pGA-E::GUS/P-35S::ΔP, pGA-E::GUS/P-35S::ΔQ, pGA-E::GUS/P-35S::ΔPΔA and pGA-E::GUS/P-35S::ΔPΔQ. A plasmid encoding full-length RF2a, p35S::RF2a, was also constructed using the methods described herein.
Tobacco transformation—the plasmids described above were introduced into Agrobacterium tumefaciens strain LBA4404 and used for tobacco transformation. Leaf discs from Nicotiana tabacum cv. Xanthi NN were transformed with the various plasmids following the protocol of Horsch et al. (1988). At least 15 independent transgenic lines were produced with each gene construct. Transgenic plants were self-fertilized, and T1 seeds were collected. The T1 seeds were germinated on Murashige and Skoog medium (Murashige and Skoog, 1962) with kanamycin (100 mg/L) selection, and Kan^r seedlings were grown in a greenhouse for observation.
The phenotype caused by 35S::RF2a-ΔPΔA was similar to, but less severe than, the phenotype caused by 35S::RF2a-3Δ. […] (FIG. 19(C)).

[2] = test system: pBII-48Ca::GUS; assay: Transactivation of pBII-48Ca::GUS by RF2a and RF2a mutants in BY-2 protoplasts; assay type: cell-based, tobacco; settings: co-transfected with pBII-48Ca::GUS, 24 hours after electroporation, normalized with GFP
Protocol: The relative activity of RF2a and the RF2a mutants (described in Example 8) was then measured. First, a chimeric promoter was developed with a single copy of the Box II element fused to the 5′ end of a minimal CaMV 35S promoter comprising nucleotides −48 to +8 (SEQ ID NO:66). The chimeric promoter was ligated to the uidA coding sequence to create the reporter pBII-48Ca::GUS.
To analyze the function of the several domains of RF2a, effectors were created by inserting coding sequences of RF2a or the mutants of RF2a (described in Example 8) downstream of the enhanced CaMV 35S promoter in the pMON999 vector (a gift from Monsanto Company, St. Louis, Mo.). The resultant constructs, p35S::RF2a, p35S::RF2a-ΔP, p35S::RF2a-ΔQ, p35S::RF2a-ΔPΔA, p35S::RF2a-ΔPΔQ and p35S::RF2a-3Δ, were co-transfected into BY-2 protoplasts with pBII-48Ca::GUS (FIG. 17(A)). Plasmid pCat-GFP, in which the GFP gene was driven by CaMV 35S promoter, was co-introduced to serve as an internal control. The following describes, in greater detail, the construction of these vectors and the methods employed in transfecting the same into BY-2 protoplasts.
Plasmids for protoplast transfection—The coding sequences for mutants of RF2a were released from pET28a-derived plasmids and cloned into the plant expression vector pMON999 (a gift from Monsanto Company, St. Louis, Mo.) to place each gene downstream of an enhanced CaMV 35S promoter, followed by a nopaline synthase terminator sequence. The resulting effector constructs were named p35S::RF2a, p35S::RF2a-ΔP, p35S::RF2a-ΔQ, p35S::RF2a-ΔPΔA, p35S::RF2a-ΔPΔQ and p35S::RF2a-3Δ. The reporter gene construct, pBII-48Ca::GUS, was built using PCR to introduce the Box II element into a minimal CaMV 35S promoter comprising nucleotides −48 to +8 with primers BII-48Ca 5′ (SEQ ID NO:53) (which contained the Box II element) and GUS 3′ (SEQ ID NO:36) using a p35S:GUS plasmid as template. The PCR product was restricted with HindIII and NcoI, and the resulting fragment was inserted into p35S::GUS to replace the original 35S promoter.
Transfection of tobacco BY-2 protoplasts—The protoplasts were isolated from tobacco cell line BY-2 as described by Watanabe et al. (1987). Approximately one million protoplasts were transfected by electroporation with 20 μg of effector construct DNA, 15 μg of herring sperm DNA, 2.5 μg of reporter gene construct DNA, and 15 μg of pCat-GFP DNA. In samples with reporter gene alone, the total amount of DNA was adjusted by adding 20 μg of herring sperm carrier DNA. The electroporation parameters used were 300 V and 250 microfarads with the Bio-Rad electroporation system (Bio-Rad Laboratories, Hercules, Calif.). Protoplast samples were cultured in Murashige and Skoog medium with 0.4 M mannitol, pH 5.8, at 28° C. The protoplasts were collected 24 hours after electroporation.

[3] = test system: Box IIm1 element; assay: Electrophoretic mobility shift assay; assay type: binding; settings: 100 ng purified protein, 32P-labeled Box IIm1 DNA probe
Protocol: The purified mutant proteins were then analyzed by SDS-PAGE to confirm that each protein was its expected size (FIG. 16(B)). To confirm that each of the mutant proteins bind to the DNA target, i.e., the Box II element and/or its operational derivatives, gel mobility shift assays were carried out with the purified recombinant proteins (FIG. 16(C)). The electrophoretic mobility shift assays were carried out essentially as described in Yin and Beachy (1995). 100 ng of proteins purified from the transformed E. coli were incubated with ^32P-labeled Box IIm1 DNA probe followed by electrophoresis in a 5% acrylamide gel (Yin et al., 1997) (FIG. 16(C)).

| Molecule | phenotype of transgenic tobacco plants [1] | phenotype of transgenic tobacco plants ([1]; listed as 35S::RF2a-ΔPΔA) | independent transgenic lines with stunting, curved leaves and delayed flowering ([1]; T1 generation tobacco) | internodal elongation of transgenic plants ([1]; transgenic tobacco) | cross-sections of the stem of transgenic plants [1] | activation function (relative GUS activity) [2] | binding in gel mobility shift assay [3] |
| --- | --- | --- | --- | --- | --- | --- | --- |
| B1 | severe stunting phenotype | mild to severe stunting with curved leaves and substantial delay in flowering times | 11 of 15 | strongly repressed | xylem of stunted plants was not uniformly lignified and that phloem development was altered | dropped to near basal level | bind to the Box IIm1 element |
| B2 | did not exhibit abnormal phenotypes |  |  |  |  | greater than that of full-length RF2a | bind to the Box IIm1 element |
| B3 | severe stunting phenotype |  |  |  | xylem of stunted plants was not uniformly lignified and that phloem development was altered | dropped to near basal level | bind to the Box IIm1 element |
